# Results published in publication PMC8279337.
# Molecular target: Adipose Triglyceride Lipase (UniProt Q96AD5)
# UniProt Q96AD5, sequence (Q96AD5 whole entry): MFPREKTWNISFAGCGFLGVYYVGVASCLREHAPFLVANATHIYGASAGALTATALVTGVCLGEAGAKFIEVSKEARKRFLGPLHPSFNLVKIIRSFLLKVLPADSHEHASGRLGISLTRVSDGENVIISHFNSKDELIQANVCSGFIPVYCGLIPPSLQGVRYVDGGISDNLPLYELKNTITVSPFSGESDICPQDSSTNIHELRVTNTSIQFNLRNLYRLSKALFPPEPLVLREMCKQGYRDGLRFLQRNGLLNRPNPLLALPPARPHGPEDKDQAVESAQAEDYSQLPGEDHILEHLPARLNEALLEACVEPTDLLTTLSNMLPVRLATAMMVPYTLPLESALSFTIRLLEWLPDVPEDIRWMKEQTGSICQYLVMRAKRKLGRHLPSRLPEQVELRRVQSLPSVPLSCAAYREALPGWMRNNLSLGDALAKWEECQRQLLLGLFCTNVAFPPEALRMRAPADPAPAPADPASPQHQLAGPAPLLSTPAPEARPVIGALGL
substance,measurement,value
MBP-G0S2 (full length G0S2 with N-terminal His6 and maltose-binding protein) (from UniProt Q61585 1-103) (natural protein),"triglyceride hydrolase activity of the ATGL lysate on [9,10-3H]-triolein (DPM), 2 and 10 ug MBP-G0S2, compared with HisMBP; DPM smaller at 10 ug than at 2 ug",60%
